Source: US12582683B2, “Prostate neoantigens and their uses” (Jansen Biotech, Inc., priority 2019, dated 2026)

B1: VFFKRAAEGFFRMNKLKESSDTNPKPYCMAAPMGLTENNRNRKKSYRETNLKAVSWPLNHT [P76] (peptide, listed as Homo sapiens)
chain: VFFKRAAEGFFRMNKLKESSDTNPKPYCMAAPMGLTENNRNRKKSYRETNLKAVSWPLNHT
notes: AR-V3
B2: WTPIPVLTRWPLPHPPPWRRATSCRMARSSPSATSGSSVRRRCSSLPSWVWNLAASTRPRSTPS (peptide, listed as Homo sapiens)
chain: WTPIPVLTRWPLPHPPPWRRATSCRMARSSPSATSGSSVRRRCSSLPSWVWNLAASTRPRSTPS
notes: TMEM222-LOC644961

What follows are molecules tested on CD8+ and CD4+ T cells (assay: Endogenous autologous normal donor restimulation assay (Ad5-transduced dendritic cells plus autologous Pan-T cells)). Settings: Table 27, restimulation with overlapping 15-mer peptide pools, highest frequency across sixteen normal donors.
Type: cell-based, human
Description: (5% CO2). The following day, DC cells were counted and plated in a 96 well round bottom microplate at a concentration of 30,000 viable cells per well. […] (5% CO2). […] Autologous CD3+ Pan-T cells isolated from human normal PBMCs were thawed using media.
Plates were incubated at 37° C. […] (5% CO2).
The cells were washed with PBS and stained with Live/Dead Fixable Aqua Dead Cell stain (Thermo-Fisher).
For “DGHSYTSKVNCLLLQDGFHGCVSITGAAGRRNLSIFLFLMLCKLEFHAC (listed as Homo sapiens) [AS55, splice variant SPOCK1]”, the “Maximum Frequency of TNFα/IFNγ Double Positive CD4+30 T cells” value was 0.063. “WKFEMSYTVGGPPPHVHARPRHWKTDR (listed as Homo sapiens) [AS18, splice variant NWD1]” was tested, and the “Maximum Frequency of TNFα/IFNγ Double Positive CD4+30 T cells” value was 0.046. “YEAGMTLGGKILFFLFLLLPLSPFSLIF (listed as Homo sapiens) [Neoantigen P87, AR-Intron]” was tested, and the “Maximum Frequency of TNFα/IFNγ Double Positive CD4+30 T cells” value was 0.079.

What follows are molecules tested on CD8+ T cells in PBMCs from patients with metastatic castrate-resistant prostate cancer (assay: Patient PBMC restimulation assay (in vitro immunogenicity of neoantigens)). Settings: fold change over negative control, highest across the PBMC donors evaluated; 9 mer peptide.
Type: cell-based, human
Design: Maximum frequency of TNFα+IFNγ+CD8+ T cells: unit not given here
Description: In Vitro Immunogenicity Assessment of Neoantigens (“Patient PBMC Restimulation Assay”)
PBMCs from human patients with metastatic castrate-resistant prostate cancer were thawed using media (RPMI 1640 supplemented with Glutamax, 10% HI FBS, and 1× Sodium Pyruvate). Cells were counted and plated in a 96 well round bottom microplate at a concentration of 250,000 viable cells per well. Lyophilized peptides were solubilized in 100% DMSO and diluted in media to 10 μg/mL. Neoantigen peptides were added in equal volume to PBMCs for a final concentration of 5 μg/mL. CEF Peptide Pool “Plus” (Cellular Technologies, Ltd.) was utilized as a positive control and DMSO at the same final concentration as the experimental peptides was utilized as a negative control. Human IL-15 (Peprotech) was added to all wells at final concentration of 10 ng/mL.
Plates were incubated at 37° C. (5% CO2) for a total of 13 days. Media was refreshed every 2 days with IL-15 (10 ng/mL final concentration) and IL-2 (R&D systems, 10 IU/mL final concentration). On day 12, PBMCs were re-stimulated with identical experimental peptides or controls, at same concentration as peptide stimulation on Day 1. After 1-hour incubation, protein Inhibitor Cocktail (eBioscience) was added to every well and plate was incubated overnight.
On day 13, cells were stained for intracellular flow cytometry analysis. The cells were washed with PBS and stained with Live/Dead Fixable Aqua Dead Cell stain (Thermo-Fisher). Following the live/dead stain, cells were blocked using Biotin-Free Fe Receptor Blocker (Accurate Chemical & Scientific Corp). Extracellular cellular flow panel (1 μL/antibody per well in 50 μL) consisted of CD3 PerCP-Cy5.5 (Biolegend), CD4 BV421 (Biolegend), and CD8 APC-Cy7 (Biolegend). After extracellular staining, cells were fixed using Foxp3/Transcription Factor Staining Buffer Set (eBioscience) and stained for intracellular proteins (1:50 dilution) using TNFα FITC (R&D Systems) and IFNγ BV785 (Biolegend). Cells were washed and resuspended in stain buffer and analyzed using a BD Celesta flow cytometer.
Flow cytometry cell staining analysis was completed using FlowJo v10. Cells were gated on live, singlet, CD3+ cells. The CD8+ T cells were analyzed for TNFα/IFNγ expression and the frequency of double positive TNFα/IFNγ CD8+ T cells was recorded. Responses were assessed to be positive when the frequency of double positive TNFα/IFNγ CD8+ T cells due to stimulation with an experimental peptide was increased greater than or equal to 2-fold over the DMSO only negative control for that patient. Peptides were analyzed in 1 to 7 patient samples.
The 9 mer fragments shown in Table 13 were assessed for their ability to activate T cells using the Patient PBMC restimulation assay described in Example 1 using TNFα and IFNγ production by CD8^+ T cells as a readout. Self-antigens shown in Table 15 were also used in the assays. […] PBMCs from ten patients were evaluated.
“YEAGMTLGEKFRVGNCKHLKMTRP (listed as Homo sapiens) [Neoantigen P82, AR-V7]” was tested, and the “Maximum fold change over” value was 3.46. “YEAGMTLGGKILFFLFLLLPLSPFSLIF (listed as Homo sapiens) [Neoantigen P87, AR-Intron]” was tested, and the “Maximum fold change over” value was 3.24. In the case of B1, the “Maximum fold change over” value is reported as 2.30. In the case of B2, the “Maximum fold change over” value is reported as 5.00.

Same assay, conditions: greatest frequency among all tested PBMC donors; negative control 0.011-0.8
With “YEAGMTLGEKFRVGNCKHLKMTRP (listed as Homo sapiens) [Neoantigen P82, AR-V7]” the “Maximum frequency of TNFα+IFNγ+CD8+ T cells” value was 0.970. With “YEAGMTLGGKILFFLFLLLPLSPFSLIF (listed as Homo sapiens) [Neoantigen P87, AR-Intron]” the “Maximum frequency of TNFα+IFNγ+CD8+ T cells” value was 0.120. For B1, the “Maximum frequency of TNFα+IFNγ+CD8+ T cells” value was 0.170. With B2 the “Maximum frequency of TNFα+IFNγ+CD8+ T cells” value was 0.480.

Same assay, conditions: patient PBMC restimulation, CD8+ T cells
With B1 the Immunogenic was “Yes”.

Each molecule was assayed against HLA-A*01:01 (Homo sapiens, UniProt P04439, A114D/A174V/A182V/D101N/D185E/E176A/E190D/L180R/Q94H/R68K/S129P/T187R/V100A/V91M/W191G) (assay: In vitro binding of neoantigens to class I MHC (UV peptide exchange, HLA class I ELISA)). Settings: 100% = same binding affinity as positive control peptide.
Description: (§1) In Vitro Binding of Neoantigens to Class I MHC
(§2) The 9 mer peptides identified by bioinformatics analysis were analyzed for their binding propensities to 6 common HLA class I alleles (HLA-A*01:01, A*02:01, A*03:01, A*24:02, B*07:02, B*08:01). The principle of the method is briefly described below and consists of two parts, one involving exchange of peptide with a positive control induced by Ultraviolet (UV) radiation, and the second is an enzyme immunoassay to detect stable HLA-peptide and empty HLA complexes.
(§3) HLA-bound peptides are critical for the stability of the HLA complex.
(§4) The exchange efficiency between the peptide of interest and Pos was analyzed using an HLA class I ELISA. The combined technologies allowed the identification of ligands for an HLA molecule of interest which are potentially immunogenic.
(§5) The UV control represented UV-irradiation of conditional HLA class I complex in the absence of a rescue peptide. […] To this end streptavidin was bound onto polystyrene microtiter wells. After washing and blocking, HLA complex present in exchange reaction mixtures or ELISA controls was captured by the streptavidin on the microtiter plate via its biotinylated heavy chain. Non-bound material was removed by washing. Subsequently, horseradish peroxidase (HRP)-conjugated antibody to human B2M was added. […] In the latter case B2M was removed during the washing step. After removal of non-bound HRP conjugate by washing, a substrate solution was added to the wells. A coloured product formed in proportion to the amount of intact HLA complex present in the samples. After the reaction was terminated by the addition of a stop solution, absorbance was measured in a microtiter plate reader. […] Suboptimal HLA binding of peptides with a moderate to low affinity for HLA class I molecules can also be detected by this ELISA technique (Rodenko, B et al. (2006) Nature Protocols 1: 1120-32).
(§6) Binding of select neoepitopes to HLA-A*01:01, HLA-A* 02:01, HLA-A* 03:01, HLA-A*24:02, HLA-1B*07:02 and HLA-1B*08:01 was evaluated using the assay described in Example 1. […] As a criterion for further evaluation, peptides with an exchange rate of at least 10% with the corresponding Pos peptide for at least one of the 6 HLA alleles that we considered for further evaluation. […] Higher percentages correspond to stronger binding to the HLA allele.
In the case of “YEAGMTLGEKFRVGNCKHLKMTRP (listed as Homo sapiens) [Neoantigen P82, AR-V7]”, the “Exchange rate with Pos peptide, HLA-A*01:01” value (“Exchange rate … HLA-A*01:01” for short) is reported as 1.5%. For “YEAGMTLGGKILFFLFLLLPLSPFSLIF (listed as Homo sapiens) [Neoantigen P87, AR-Intron]”, the “Exchange rate … HLA-A*01:01” value was 1.1%. In the case of B1, the “Exchange rate … HLA-A*01:01” value is reported as 0.1%. With B2 the “Exchange rate … HLA-A*01:01” value was 5.2%.

These molecules were tested against HLA-A*02:01 (Homo sapiens, UniProt P04439, D140Y/D185E/D98H/E176V/E277Q/G131W/G231S/I119V/I121R/I166T/I218V/L300P/L318F/N151K/N90K/P208A/P217A/Q86G/Q94H/R138H/R169H/T345S) in the same assay as above. Settings: 100% = same binding affinity as positive control peptide.
Description: as §1, §2, §3, §4, §5, §6
With “YEAGMTLGEKFRVGNCKHLKMTRP (listed as Homo sapiens) [Neoantigen P82, AR-V7]” the “Exchange rate with Pos peptide, HLA-A*02:01” value (shortened to “Exchange rate … HLA-A*02:01”) was 6.3%. “YEAGMTLGGKILFFLFLLLPLSPFSLIF (listed as Homo sapiens) [Neoantigen P87, AR-Intron]” was tested, and the “Exchange rate … HLA-A*02:01” value was 64%. With B1 the “Exchange rate … HLA-A*02:01” value was 85.9%. With B2 the “Exchange rate … HLA-A*02:01” value was 8.2%.

These molecules were tested against HLA-B*07:02 (Homo sapiens, UniProt P01889) in the same assay as above. Settings: 100% = same binding affinity as positive control peptide.
Description: as §1, §2, §3, §4, §5, §6
For “YEAGMTLGEKFRVGNCKHLKMTRP (listed as Homo sapiens) [Neoantigen P82, AR-V7]”, the “Exchange rate with Pos peptide, HLA-B*07:02” value (“Exchange rate … HLA-B*07:02” below) was 12.9%. With “YEAGMTLGGKILFFLFLLLPLSPFSLIF (listed as Homo sapiens) [Neoantigen P87, AR-Intron]” the “Exchange rate … HLA-B*07:02” value was 5%. In the case of B1, the “Exchange rate … HLA-B*07:02” value is reported as 91.5%. For B2, the “Exchange rate … HLA-B*07:02” value was 91.3%.

The molecules below were run against HLA-A*03:01 (Homo sapiens, UniProt P04439) in the same assay as above. Settings: 100% = same binding affinity as positive control peptide.
Description: as §1, §2, §3, §4, §5, §6
In the case of “YEAGMTLGEKFRVGNCKHLKMTRP (listed as Homo sapiens) [Neoantigen P82, AR-V7]”, the “Exchange rate with Pos peptide, HLA-A*03:01” value (from here on “Exchange rate … HLA-A*03:01”) is reported as 58.1%. “YEAGMTLGGKILFFLFLLLPLSPFSLIF (listed as Homo sapiens) [Neoantigen P87, AR-Intron]” was tested, and the “Exchange rate … HLA-A*03:01” value was 2.4%. For B1, the “Exchange rate … HLA-A*03:01” value was 6%. For B2, the “Exchange rate … HLA-A*03:01” value was 4.1%.

The molecules below were run against HLA-A*24:02 (Homo sapiens, UniProt P04439, D101N/D140Y/D185E/E176V/E190D/F33S/G103R/G107R/I119L/I121M/I306V/K335N/L105A/L180Q/L300P/N151K/N90K/Q86E/Q94H/R106L/R138H/R89G/T104I/T345S/V100E/W191G/Y123F) in the same assay as above. Settings: 100% = same binding affinity as positive control peptide.
Description: as §1, §2, §3, §4, §5, §6
With “YEAGMTLGEKFRVGNCKHLKMTRP (listed as Homo sapiens) [Neoantigen P82, AR-V7]” the “Exchange rate with Pos peptide, HLA-A*24:02” value (shortened to “Exchange rate … HLA-A*24:02”) was −0.1%. With “YEAGMTLGGKILFFLFLLLPLSPFSLIF (listed as Homo sapiens) [Neoantigen P87, AR-Intron]” the “Exchange rate … HLA-A*24:02” value was 0.2%. With B1 the “Exchange rate … HLA-A*24:02” value was −0.5%. With B2 the “Exchange rate … HLA-A*24:02” value was 0.1%.
